Substrate in the data set “purified protein”: C=C(C)CCO[P@@](=O)(O)OP(=O)(O)O
The data set can be described thus: purified protein. Particulars: DMAPP 50 μM constant, 35 mM Tris-HCl pH 7.5, 10 mM MgCl2, 4 mM DTT, 30 °C.

Substrate in data set [1]: CC(C)=CCC/C(C)=C/COP(=O)(O)OP(=O)(O)O
The data set can be described thus: LC/MS quantification of FPP formed. The following applies: IPP 50 μM constant, 35 mM Tris-HCl pH 7.5, 10 mM MgCl2, 4 mM DTT, 30 °C. It is filed as biochemical, Sundstroemia setigera.

Substrate in data set [2]: CC(C)=CCOP(=O)(O)OP(=O)(O)O
The data set can be described thus: LC/MS quantification of FPP formed. The data set is classed as biochemical, Sundstroemia setigera. Particulars: IPP 50 μM constant, 35 mM Tris-HCl pH 7.5, 10 mM MgCl2, 4 mM DTT, 30 °C.

B1: RsFPPS (Sundstroemia setigera) (protein)
chain: VSSLPPIIAGAAIYRLVSSKTLPDLTSAFFELEIPDQISLLSLLFASVFSAVSISGFIAPPGHNDDDDEDEHKPPFQYPLKEIASKTTDKEKFLSVYPCLRDSIAEYFATKHEMVPEGVNWITEMIDYSCVGGKMNRGITVLTVARTLSGSSGLTPREEARASVVGWGIEFLQAFFLVADDLMDDSKTRRGQPCWYLLPKVGTIAVNDSFLLESFVFTFLKEHFGKEPYYIKLVELFLETIQQTECGQLLDLTSQPKDAKTADLSRFTIERYRKIVKYKTAFYSFYLPVASAMLMSGVTNSKSFKTARNICCIMGEYFQIQDDVLDCYGTPEVIGKVGTDIQDNKCSWLIVQALDRATPEQRKVIEENYGKWDDAKVAKIKAIYNEMGLKSVFEKYEEDSYAEIQEELKKINDIPQEVFTLFLDKIYKRSK
notes: kcat calculated for dimer
The Km is the concentration of substrate that gives half-maximal velocity. The kcat is the maximal rate divided by the concentration of active sites. In the case of B1, the figures for the Km (in the data set “purified protein”; in data set [1]; in data set [2]) were 21.5 ± 6.7 µM, 63.0 ± 7.5 µM and 10.6 ± 2.3 µM, respectively. Moreover, the kcat in “purified protein” stood at 6.192 ± 0.5738 s⁻¹; in data set [1], 43.5 ± 2.228 s⁻¹; in data set [2] it was 5.73 ± 0.3038 s⁻¹.

Values taken from publication PMC4440519, “Cloning and characterization of farnesyl pyrophosphate synthase from the highly branched isoprenoid producing diatom Rhizosolenia setigera” (Scientific Reports, 2015).
